Legend:
[1] = system: Hep G2 tumours in SWISS nude mice; test: Orthotopic Hep G2 human liver carcinoma, 1 mg/kg; format: in vivo, mouse
[2] = system: Varicella Zoster Virus (VZV); test: Plaque reduction assay against VZV in HFFs; format: cell-based; settings: for VZV spread (pfu) ± SD: 24 h
[3] = Ocular MTD study, subconjunctival; format: in vivo, rat
[4] = Phase I single ascending i.v. dose study, healthy male volunteers; format: in vivo, human
[5] = system: TC-3 cells; test: IL-1-induced pancreatic beta-cell apoptosis; format: cell-based; settings: 1 μM single addition, 15 days IL-1
[6] = system: human foreskin fibroblasts (HFFs); test: Neutral Red cytotoxicity assay; format: cell-based; settings: 1, 2, 5 μM, 24 h
[7] = system: murine T cells; test: PMA & ionomycin-induced cytokine production in primary cells; format: cell-based, mouse; settings: Fig. 28 D-E
[8] = system: Mapk14f/f and Mapk14Δli* mice; test: DEN-induced hepatocyte proliferation (Ki67) in Mapk14-deficient mice; format: in vivo, mouse; settings: 20 mg/kg i.p. before DEN, 48 h
[9] = system: Wistar rats; test: Renal ischemia/reperfusion, 40 min clamping; format: in vivo, rat; settings: 2 mg/kg i.v. 1 h after clamping; 24 h
[10] = system: Wistar rats; test: PAN-induced nephropathy, frequency of administration; format: in vivo, rat
[11] = Previous open-label dose-escalation trial in post-surgery/post-trauma intraocular inflammation; format: in vivo, human; settings: 45, 90, 450, 900 μg subconj., 20 patients
[12] = system: Sprague-Dawley albino rats; test: Light-induced photoreceptor damage (AMD model), ERG and ONL thickness; format: in vivo, rat
[13] = system: human islets; test: Human islets, 24 h hypoxia; format: cell-based; settings: 100 μM
[14] = system: THP-1 cells; test: LPS-induced cytokine release; format: cell-based; settings: Fig. 27 A-C

Substance: NH2-DQSRPVQPFLNLTTPRKPRPPRRRQRRKKRG-COOH (H-DQSRPVQPFLNLTTPRKPRPPRRRQRRKKRG-OH; also: D-amino acids (positions not given here)) [XG-102]
- mean survival time (as headed) ([1]; 1 mg/kg/inj i.v. [Q4Dx4]x2, vehicle 102): 123 일
- median survival time ± SD (as headed) ([1]; 1 mg/kg/inj i.v. [Q4Dx4]x2 from D10, D41, vehicle 102 ± 8): 111 ± 14 days
- VZV spread (pfu) ± SD ([2]; 0.5 μM): 260 ± 53 pfu
- VZV spread (pfu) ± SD ([2]; 1.0 μM): 212 ± 48 pfu
- VZV spread (pfu) ± SD ([2]; 2.0 μM): 312 ± 79 pfu
- EC50 ([2]; interpolated from graph, read-out: EC50 (50% reduction of VZV yield)): ~300 nM
- NOAEL [3]: ~20 µg
- time at which plasma concentration fell below LLOQ ([4]; 10 μg/kg i.v. infusion): ≤ 2 시간
- time at which plasma concentration fell below LLOQ ([4]; 40 μg/kg, after start of infusion): 3 시간
- time at which plasma concentration fell below LLOQ ([4]; 80 μg/kg, after start of infusion): ≤ 7 시간
- inter-subject variability of PK parameters (CV% of geometric mean) ([4]; 80 μg/kg, except MRT): 29-44%
- increase of AUC0-last with dose ([4]; 10-80 μg/kg): 선형 이상의 비율로 증가했다
- inter-subject variability of PK parameters (CV% of geometric mean) ([4]; 10 and 40 μg/kg, most parameters): 15-30%
- increase of Cmax with dose ([4]; 40 to 80 μg/kg): 선형 이상의 비율로 증가하는 것으로 나타났다
- safety and tolerability ([4]; single i.v. 10, 40 or 80 μg/kg): 안전하고 내약성이 우수했다
- long-term protection against IL-1-induced cell death [5]: 보호를 부여할 수 있었으나
- cytotoxicity [6]: 관찰되지 않았으며
- PMA & ionomycin-induced TNFa, IFNg production [7]: 사이토카인 방출을 억제한다
- hyperproliferation of Mapk14-/- hepatocytes (Ki67) [8]: 되돌린다
- serum creatinine vs untreated ischemic rats [9]: 보다 낮은 혈청 크레아티닌을 보였다
- glomerular injury score (GIS) ([10]; 4 mg/kg i.v. x1 (d21), day 49): 1.53 ± 0.05
- glomerular injury score (GIS) ([10]; 4 mg/kg i.v. x1 (d21), day 77, PAN/vehicle 1.39 ± 0.10): 0.82 ± 0.04
- percentage of injured glomeruli ([10]; 4 mg/kg i.v. x1, day 77 (PAN/vehicle 91%)): 69%
- glomerular injury score (GIS) ([10]; 4 mg/kg i.v. x2 (d21, d35), day 49, P<0.01): 1.26 ± 0.06
- glomerular injury score (GIS) ([10]; 4 mg/kg i.v. x4 (weekly from d21), day 49, PAN/vehicle 1.50 ± 0.06): 0.94 ± 0.05
- percentage of injured glomeruli ([10]; 4 mg/kg i.v. x4, day 49): 76.9%
- mean % glomeruli with grade 1 ([10]; 4 mg/kg i.v. x4, day 49 (PAN/vehicle 37%)): 61%
- mean % glomeruli with grade 2 ([10]; 4 mg/kg i.v. x4, day 49 (PAN/vehicle 46%)): 15%
- safety and tolerability [11]: 안정하고 내약성이 우수하다
- b-wave recovery (% of baseline) ([12]; 1.5 μg/eye IVT, day 9): 55.3%
- a-wave recovery (% of baseline) ([12]; 1.5 μg/eye IVT, day 16): 47.5%
- b-wave recovery (% of baseline) ([12]; 1.5 μg/eye IVT, day 16): 61.7%
- a-wave recovery (% of baseline) ([12]; 1.5 μg/eye IVT, day 23): 48.3%
- b-wave recovery (% of baseline) ([12]; 1.5 μg/eye IVT, day 23): 73.5%
- ONL thickness loss (% vs non-induced control eyes) ([12]; 1.5 μg/eye ivt): 39%
- ONL thickness ([12]; 1.5 μg/eye ivt, day 23, p<0.05 vs vehicle): 24.89 ± 4.01 μm
- b-wave recovery (% of baseline) ([12]; 15 μg/eye IVT, day 9): 60.6%
- a-wave recovery (% of baseline) ([12]; 15 μg/eye IVT, day 16): 51.1%
- b-wave recovery (% of baseline) ([12]; 15 μg/eye IVT, day 16): 62.3%
- a-wave recovery (% of baseline) ([12]; 15 μg/eye IVT, day 23): 41.8%
- b-wave recovery (% of baseline) ([12]; 15 μg/eye IVT, day 23): 56.5%
- ONL thickness loss (% vs non-induced control eyes) ([12]; 15 μg/eye ivt): 40%
- ONL thickness ([12]; 15 μg/eye ivt, day 23, p<0.05 vs vehicle): 24.42 ± 5.99 μm
- a-wave recovery (% of baseline) ([12]; 150 μg/eye IVT, day 9 (vehicle 5.7)): 23.6%
- b-wave recovery (% of baseline) ([12]; 150 μg/eye IVT, day 9 (vehicle 15)): 31.9%
- a-wave recovery (% of baseline) ([12]; 150 μg/eye IVT, day 16 (vehicle 13.2)): 24.1%
- b-wave recovery (% of baseline) ([12]; 150 μg/eye IVT, day 16 (vehicle 24.8)): 38.9%
- a-wave recovery (% of baseline) ([12]; 150 μg/eye IVT, day 23 (vehicle 22.5)): 23.7%
- b-wave recovery (% of baseline) ([12]; 150 μg/eye IVT, day 23 (vehicle 30.6)): 37.1%
- ONL thickness loss (% vs non-induced control eyes) ([12]; 150 μg/eye ivt): 53%
- ONL thickness ([12]; 150 μg/eye ivt, day 23): 18.95 ± 9.17 μm
- hypoxia-induced islet apoptosis [13]: 세포 자멸을 감소시키는
- islet necrosis ([13]; normoxia and hypoxia): 괴사를 감소시키는
- LPS-induced TNFa, IL-6, MCP-1 release [14]: 사이토카인 방출을 억제한다

Reference: KR20170021349A, “다양한 질병의 치료를 위한 jnk 신호 전달 경로의 세포 투과성 펩타이드 억제자의 새로운 용도” (자이겐 인플라메이션 리미티드, priority 2014, dated 2017)
